Results from the supplement of paper PMC12042874.
± gives the uncertainty stated by the source.

Test: amyloid nucleation score (Sup35N fusion, yeast selection) (log enrichment); library NNK2; higher = more nucleation; inactive = no reads after selection
In short: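 Libraries of peptides of 20 random codons fused to Sup35N were expressed in psi-negative yeast and induced 24 hours with 100 μM copper sulfate. Selection was 7 days at 30°C on medium lacking adenine and uracil, and plasmid inserts were Illumina-sequenced before and after selection. Nucleation score is the DiMSum log enrichment of output over input reads, centred on the mode score of non-aggregating sequences, and sequences with under 100 input reads were left out.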

Substance | amyloid nucleation score
WFVGCHTVRR | 0.84 ± 0.33
CFFTSYTRA | -0.114 ± 0.55
NTLSR | 5.654 ± 0.05
LTTVGHSVKLSWRVLSG | 1.9 ± 0.18
DFAGSKDDWTSQMMGVLDGL | -0.689 ± 0.44
LVLAGSYDRCLPSCVVMRKG | 0.461 ± 0.64
MMIPFVMYYRFDGYVKRHTG | -0.512 ± 0.76
FGIMNMKYGYTCMMSSSKSS | -1.43 ± 1.1
AAVFMLQRLDFINRMASASF | 3.72 ± 0.055
FNVNRLAVLSYVSSWSGVIM | -0.772 ± 0.35
LCLTLVRPPRSCMLATL | inactive
RVYIFTCYGSSV | 7.997 ± 0.074
STGCSYHFRMIHATVTTYFG | 3.59 ± 0.053
DNFFIMALHSSREVDMKNRS | -1.53 ± 1
RIMTPWIGRGRRAHIFLHLW | 1.06 ± 0.29
VALMYFRFQKFDSSSSMHRF | 2.5 ± 0.18
MFRSVRFVCWSRLIDNRYMQ | -0.18 ± 0.34
FSECLKTTENMKITQKGTPV | 0.459 ± 0.54
LGCNDSWEWDFVTPNGTFPF | -0.445 ± 0.48
FFTVDRDFLYFPDFSKRVVM | -0.569 ± 0.79
NKANLLYSPLLCLMAVHRMY | inactive
NDRNYLSGSGESELLPDCND | -0.434 ± 0.76
SNGMRNCKVCEFLLRLYASY | -1.15 ± 0.55
SGWSNFVLCILHTTTGMKRH | 3.95 ± 0.071
FHPVFGMFWRTSNERSGLFQ | -1.03 ± 0.48

Substance | amyloid nucleation score
HVHGMYSGWCYDKTGQEKGM | 0.624 ± 0.34
YTRGTNGLWLYRWVMVRGSN | -0.649 ± 0.36
MDLRWKSSGRKVNLNRLIQR | 4.647 ± 0.036
LINEFNAKNQSVRIFPVSEK | -0.645 ± 0.64
RGFWRVFGCRHIVATPFEVE | 8.675 ± 0.058
QTNGGEGQ | 0.705 ± 0.24
FSCMISIKRFFRVAKNASGY | 4.84 ± 0.084
GWVKDDWDFTLMRPRFVGRG | -0.143 ± 0.76
YNASVDVLHY | -0.146 ± 1
DMGGPTTIY | 0.798 ± 0.67
LCMKYGVCVYVLFGWCKYTV | -0.068 ± 0.79
GQGKRNVSLSNGGDKFNLDV | 4.98 ± 0.1
CFSCVFIMDCCRH | 7.954 ± 0.062
WWTIIICNWSVSKGQDDNRA | 7.238 ± 0.059
AGKFSWDNPYILLVNTI | inactive
YFRCTHYTKTGTLVGDISVC | -0.657 ± 0.38
IVGDVHSLMILRVKSAFKFT | 2.81 ± 0.16
CYINKVRCMMHLWDHDDTWG | 0.734 ± 0.81
FWEKSSKVFW | 3.33 ± 0.13
FLPYFNPEVSGIFCVNRMST | -0.971 ± 0.53
LVLPYSGTHAGLRVWCGSSV | 0.696 ± 0.34
SKMPP | 0.147 ± 1.1
SSVRCTYGLNCNQRL | 2.92 ± 0.076
VVFCGVFLCDCDNGESSSRY | 8.989 ± 0.071
ILSQPEEGLGGTKSSFCVVF | -0.363 ± 1.1

Substance | amyloid nucleation score
SFGVGEFDVNYLMERRF | -0.066 ± 0.4
KPCSGIRVCIDLCYPP | 0.383 ± 0.74
QTVTCHNNRYVFRLSTMC | 0.71 ± 0.41
YRSSHYYQQSIIVFVIMHRC | 2.11 ± 0.3
VRLNDWMVHLND | 0.752 ± 0.35
FIFDR | -0.257 ± 0.54
IRLYKGVTWIFLSGSYLLRD | -0.891 ± 1.1
LVNFSSLIV | -2.07 ± 1.1
LGPGLDLSIINYEWIIF | -0.202 ± 0.79
RNRSGVMW | 0.276 ± 1
TWVVRVGFMLAYLKQR | 2.63 ± 0.093
GVPALGFGLAGLTVACFAEE | -0.097 ± 0.34
GFIISFYISDSCKSLCWQPM | 0.339 ± 0.53
CRMFSEHSYRRSSLSVPGMN | inactive
PSGPSHIYGWYDSFHNCSYN | -0.369 ± 0.49
MRPAPIINN | 1.14 ± 0.44
FLSSYVFLCWCSLVSWGGTW | 1.03 ± 0.66
VLVSVVRCDVVAAVRCVQM | 3.56 ± 0.11
FEVDVA | inactive
HRLVLDIGDQIWSKA | 0.35 ± 0.56
VSARGSWFLTTSAAC | -1.29 ± 1.1
VDPPLGKWGAEGCI | 0.484 ± 0.51
HGLLTKLWRPFMHGSV | 0.203 ± 0.31
IFCCIRFLV | 6.549 ± 0.03
CYSLSYLILVCR | 5.73 ± 0.041

Substance | amyloid nucleation score
MFGGLGTDSLA | -0.46 ± 1
SGNVYFLQNRFSVAKQNYTL | -0.448 ± 0.79
FNLYYSRGLSSCLSYSRLEV | -0.532 ± 1
HRMNGFDLLMLVCKKCIDFC | inactive
GWSYTEVYFMIASCYII | 1.16 ± 0.29
TRYRLDACRGHAWYSVFFLM | -0.286 ± 0.49
FFLGANGINALQNRSYIQPG | 0.007 ± 0.79
LGYMVVK | -1.35 ± 0.75
YNRRLYRIACVGIVNVNGVG | 5.902 ± 0.042
YMFNSWYGLSSLWGKSKKMS | -0.538 ± 0.26
MKRVGKFVGLGGRHVVHSRV | 0.434 ± 0.33
ICRGPQSSNCMEAFVQHFTK | 0.417 ± 0.42
IVRVSMGYGIIPLICSKTEG | 0.859 ± 0.74
YECGCHLFD | -0.225 ± 0.74
SLSGHDLNWRFI | 0.32 ± 0.74
SDLANTLEPELQAFVIQ | -0.029 ± 0.61
IDLSTMTAGTCISYCVYCRI | 5.25 ± 0.1
ITDVFSDAACNRWQINYTQA | -0.832 ± 0.33
VDMPTSQFVTSTTLGTLVTM | 2.32 ± 0.12
FGTILGSLVLVIWI | inactive
HGGRKG | 1.42 ± 0.31
VTNSSMQMSSWADPSVKSGM | 0.032 ± 0.32
GWAIPFADIEHCHVLLRISV | 0.914 ± 0.46
NVWILNNYGQCIKS | 5.254 ± 0.023
DVLLVLHVIWCICYPLGVVS | 0.429 ± 0.4

Substance | amyloid nucleation score
DCLICFKDICNFENNEMIGA | -0.556 ± 0.2
WLRDYRLWATT | -0.223 ± 0.63
LPVGPLVRDNTWHRRVQRWL | 1.11 ± 0.29
WVSVRKRHWTTHWLGVGVPN | 0.611 ± 0.66
NWLIMYNFAR | inactive
GTPRFEVNIMFHTVDS | 1.57 ± 0.22
SFGTFVSGTALLGSMFCTTG | 0.285 ± 0.29
RFCGVVLSHSSD | 7.913 ± 0.03
ALEFNT | 4.14 ± 0.1
KMFVILIIHTLLGAITAVCG | 0.186 ± 0.76
DEKIYLVSG | 0.472 ± 0.66
RRAILWPNGAN | 0.097 ± 0.37
GFWFFIYVDCVLCVSPTRIN | -0.663 ± 0.56
CLFWLHQHMQYFHVMGLSPT | 2.21 ± 0.22
ALYCERCYWPV | 0.092 ± 0.53
RLTYNKYLTWNCYVFLSHAL | -0.464 ± 1.1
FSMPTYSSALAFM | -0.352 ± 0.28
YGRIR | -0.131 ± 0.63
DNCFAAFSFRRGVAYVDL | -0.52 ± 0.38
AYLFHLFIIS | -0.017 ± 0.48
NSMNVGSFRSSEWLVLFENV | -0.453 ± 1.1
LEAMVTITT | 0.273 ± 0.39
SLMCIIFLQYWNLLLTIRVT | inactive
HMSRTPQAVRTSHPRVKNRI | -0.026 ± 0.26
YDCLSWRLKEERQATFGFRG | 0.505 ± 0.51

Substance | amyloid nucleation score
SLSLINRSVVDAWRGRDGVR | 5.107 ± 0.034
NGLGLTIWL | 0.448 ± 0.22
TTSQFGLGGICPDNSTGLLA | -1.31 ± 1
AVQEEARLALSVEPWSSDSG | 1.22 ± 0.28
AEEQLLWFCYFRELKILNIF | inactive
TSRLHNFATRIIVCYRLLMQ | -0.525 ± 1.1
LNIHLFSVTGLCDEC | -0.344 ± 0.76
VVGFF | inactive
IFRVLTGVIK | -0.277 ± 0.26
RHLHYRRYKIAAKGLIVFMN | 3.95 ± 0.067
FWVMANYRH | 3.18 ± 0.047
DRYSTCSNRKSTRYLFMTFA | 0.151 ± 0.36
FIINKHSFQRGLFMVSLVSI | inactive
TMGTSSLVSAQLICRGTLAK | 0.172 ± 0.62
NKMEDHGMWDLIAYRGVIPL | -0.269 ± 0.22
NRNHMCRSCYMGWFRGRAKA | -1.04 ± 0.42
TFYSSWWSNSECYCS | 2.45 ± 0.1
RSCSWLLIYRIVILVG | inactive
DTYDSCMSSVMISFR | 0.343 ± 0.51
GFVDTTLCMVNLFYGRKSHL | 7.862 ± 0.047
HNAEANNVS | -0.492 ± 1.1
MNCVLQKLVVVCFQSMAYMR | 0.498 ± 0.27
GVHISRVVCQN | 0.265 ± 1.1
SMMQLCV | -0.043 ± 0.54
LLSVCFSRARC | 1.07 ± 0.23

Substance | amyloid nucleation score
QFSLLTKYTNVHILGSEEFG | 0.388 ± 0.36
WTCAAFFEMDDRQGIVEIFI | 0.644 ± 0.81
NYYYIVLLYRSLLLMS | -0.265 ± 0.41
TSFSG | 0.56 ± 0.38
STAKYVYYTLLR | 0.204 ± 0.65
AQGILVLLSSD | 0.23 ± 0.47
SFLFVFSRTGFDCLVDFCFE | -1.76 ± 0.75
SVKWKTRDEKS | -0.711 ± 0.54
CFANRNRFFMSLSEHHTFDG | -0.798 ± 1.1
FVLCYTTGFLVTFLLEWFFS | 0.228 ± 1
VGRVHSLSDYCDFGKSWFKY | -0.864 ± 0.74
VSSPCGRFSFNNNGGKVWTW | -0.111 ± 0.61
GVGSCTRQLWRISRSTPLKL | 2.65 ± 0.069
NFSIL | -0.184 ± 1.1
CVDTSFCLYARELILCAR | -0.121 ± 0.5
VMYRRSACIEQDSYSNINCR | 0.025 ± 0.29
GGSKLVLLFE | -0.81 ± 0.76
SRYKWKTDVHTKWTCHF | 1.73 ± 0.091
GITSFDTIYCGRVVYQRWLL | 0.578 ± 0.81
RLLLCLRLSY | 2.7 ± 0.12
CMLMYVYMIDWRPINFMFF | 5.301 ± 0.041
EPCNTNIK | -0.553 ± 0.29
SRSYSNLWLGAHVLTRLRHD | -0.337 ± 1.1
